The target in assay [1] is T1, human α-synuclein pre-formed fibrils (Human Alpha Synuclein Pre-formed Fibrils Type II, StressMarq SPR-317) (human, UniProt P37840 1-140). As to the kind of experiment: SPR Biacore T200, antibody captured on Protein A chip, α-syn PFF analyte, 1:1 model. The procedure:
The equipment used was Biacore® (GE Healthcare, Model T200). Protein A (GE Healthcare, Cat: 29-1275-56) was used as a chip, 10 mM glycine-HCl pH 1.5 (GE Healthcare, Cat: BR-1003-54) was used as a regeneration buffer, and HBS-EP was used as a running buffer and an analyte dilution and sample dilution buffer. […] A capture phase was carried out at a contact time of 60 seconds and a flow rate of 30 μL/min was used for a stabilization period of 60 seconds, with the target resonance units (RU) of fibril set to 10 (theoretical). In an association phase, the association time was set to 60 seconds and a flow rate was set to 60 μL/min. In a dissociation phase, the dissociation time was set to 180 seconds, and a flow rate was set to 60 μL/min. In a regeneration phase, the flow rate was set to 30 μL/min, and the regeneration time was set to 60 seconds. A 1:1 binding model was used for fitting, and the Biacore® T200 Evaluation software (GE Healthcare) was used for the evaluation.

The target of assay [2] is T1, human α-synuclein pre-formed fibrils …. As to the kind of experiment: sandwich ELISA, antibody coated, α-syn PFF added, 7B7-biotin detection. The procedure: (§1) Specifically, the antibodies were diluted with PBS by six-fold serial dilution from 400 nM to 0.009 nM. The diluted antibodies were added to a 96-well plate at 100 μL/well for coating. The plate was sealed and incubated at 4° C. for 16 hours. After washing with phosphate-buffered saline with Tween® (PBS-T; 0.05% Tween® 20) five times, the plate was blocked with 5% BSA in PBS 200 μL/well at 37° C. for 2 hours. After washing with PBS-T five times, α-syn PFF (2 μg/mL, 100 μL/well in 2% BSA in PBS) was added to the plate and incubated at 37° C. for 2 hours. After washing with PBS-T five times, 7B7-biotin antibody (anti-α-syn antibody; 1 μg/mL/100 μL/well, in 2% BSA in PBS) was added and incubated at 37° C. for 2 hours. After washing with PBS-T five times, the plate was incubated with horseradish peroxidase (HRP)-bound streptavidin in PBS with 2% BSA (1:5000, 1 mg/mL stock, 20 ng/well, 100 μL/well) at 37° C. for 1 hour. After washing with PBS-T five times, 3,3′,5,5′-tetramethylbenzidine (TMB) (100 μL/well) was added and incubated at room temperature for 5 minutes. The reaction was stopped by the addition of 0.5 N H₂SO₄ (50 μL/well). Optical absorbance at 450 nm was measured by using a plate reader, with absorbance at 650 nm subtracted from the reading.

For assay [3] the target is unchanged. Described as above. As for the experimental part:
as §1
The source holds these as a separate data set.

For assay [4] the target is unchanged. Described as above. The procedure:
as §1
The source holds these as a separate data set.

The target is the same in assay [5]. The description is as above. The procedure:
as §1
This is another data set of the same source.

In assay [6] the target is human α-synuclein oligomers (Dopamine HCL Stabilized Human Recombinant Alpha Synuclein Oligomers, StressMarq … (human, UniProt P37840 1-140)). Put plainly: sandwich ELISA, antibody coated, oligomeric α-syn added, 7B7-biotin detection. As for the experimental part:
Human α-syn oligomers from StressMarq (Dopamine HCL Stabilized Human Recombinant Alpha Synuclein Oligomers, SPR-466) was used as the oligomeric α-syn in the assay.
In this sandwich ELISA, test antibodies were diluted with PBS by five-fold serial dilution from 80 nM to 0.005 nM. The serially diluted antibodies were added to a 96-well plate at 100 μL/well for coating. The plate was sealed and incubated at 4° C. for 16 hours. After washing with PBS-T five times, the plate was blocked with 5% BSA in PBS 200 μL/well at 37° C. for 2 hours. After washing with PBS-T five times, oligomeric α-syn (2 μg/mL, 100 μL/well in 2% BSA in PBS) was added and incubated at 37° C. for 2 hours. After washing with PBS-T five times, 7B7-biotin antibody (1 μg/mL, 100 μL/well, in 2% BSA in PBS) were added and incubated at 37° C. for 2 hours. After washing with PBS-T five times, the plate was incubated with Streptavidin-HRP in 2% BSA in PBS (1:5000, 1 mg/mL stock, 20 ng/well, 100 μL/well) at 37° C. for 1 hour. After washing with PBS-T five times, TMB (100 μL/well) was added and incubated at RT for 5 minutes. The reaction was stopped by the addition of 0.5 N H₂SO₄ (50 μL/well).

Where two headings read alike, the source gives them in different places.

B1: hu1E4(V3_VL2) x Grabody B (bispecific antibody, human IgG1, kappa)
heavy 1: not shown
heavy 2: not shown
light: DVVMTQTPLSLSVTPGQPASISCRSSQSLVHSNGNTYLHWYLQKPGQSPQLLIYKVSNRFSGVPDRFSGSGSGTDFTLKISRVEAEDVGVYYCSQSTHVPRTFGQGTKLEIKRTVAAPSVFIFPPSDEQLKSGTASVVCLLNNFYPREAKVQWKVDNALQSGNSQESVTEQDSKDSTYSLSSTLTLSKADYEKHKVYACEVTHQGLSSPVTKSFNRGEC
notes: also called hu1E4(V3 VL2) × Grabody B
In assay [1], B1 showed a dissociation constant Kd of 0.0982 nM, an off-rate constant (koff) of 0.000992 s⁻¹ and a kon of 1.01e+07 M⁻¹ s⁻¹. The same molecule showed an EC50 in assay [2] of 0.285 nM.

B2: hu1E4(V5_VL4) x Grabody B (bispecific antibody, human IgG1, kappa)
heavy 1: not shown
heavy 2: not shown
light: DVVMTQSPLSLPVTLGQPASISCRSSQSLVHSNGNTYLHWYQQRPGQSPRLLIYKVSNRFSGVPDRFSGSGSGTDFTLKISRVEAEDVGVYYCSQSTHVPRTFGGGTKVEIKRTVAAPSVFIFPPSDEQLKSGTASVVCLLNNFYPREAKVQWKVDNALQSGNSQESVTEQDSKDSTYSLSSTLTLSKADYEKHKVYACEVTHQGLSSPVTKSFNRGEC
notes: also called hu1E4(V5 VL4) × Grabody B
As for B2, in assay [1], the Kd is 0.167 nM, the off-rate (koff) was 0.0016 s⁻¹ and the kon was found to be 9.96e+06 M⁻¹ s⁻¹. Further, it took 0.284 nM to reach a half-maximal effect in assay [3] (EC50).

B3: hu1E4(V6_VL3) x Grabody B (bispecific antibody, human IgG1, kappa)
heavy 1: not shown
heavy 2: not shown
light: DVVMTQSPLSLPVTLGQPASISCRSSQSLVHSNGNTYLHWFQQRPGQSPRRLIYKVSNRFSGVPDRFSGSGSGTDFTLKISRVEAEDVGVYYCSQSTHVPRTFGGGTKVEIKRTVAAPSVFIFPPSDEQLKSGTASVVCLLNNFYPREAKVQWKVDNALQSGNSQESVTEQDSKDSTYSLSSTLTLSKADYEKHKVYACEVTHQGLSSPVTKSFNRGEC
notes: also called hu1E4(V6 VL3) × Grabody B
B3 had an EC50 in assay [3] of 1.12 nM.

B4: hu1E4(V7_VL2) x Grabody B (bispecific antibody, human IgG1, kappa)
heavy 1: not shown
heavy 2: not shown
light: DVVMTQTPLSLSVTPGQPASISCRSSQSLVHSNGNTYLHWYLQKPGQSPQLLIYKVSNRFSGVPDRFSGSGSGTDFTLKISRVEAEDVGVYYCSQSTHVPRTFGQGTKLEIKRTVAAPSVFIFPPSDEQLKSGTASVVCLLNNFYPREAKVQWKVDNALQSGNSQESVTEQDSKDSTYSLSSTLTLSKADYEKHKVYACEVTHQGLSSPVTKSFNRGEC
notes: also called hu1E4(V7 VL2) × Grabody B
As for B4, in assay [1], binding was put at a Kd of 0.143 nM, the off-rate (koff) turned out to be 0.0015 s⁻¹ and the association rate constant (kon) came to 1.05e+07 M⁻¹ s⁻¹. The same molecule yielded a 50% effective concentration (EC50) in assay [2] of 0.418 nM.

B5: hu1E4(V2_VL2) x Grabody B (bispecific antibody, human IgG1, kappa)
heavy 1: not shown
heavy 2: not shown
light: DVVMTQTPLSLSVTPGQPASISCRSSQSLVHSNGNTYLHWYLQKPGQSPQLLIYKVSNRFSGVPDRFSGSGSGTDFTLKISRVEAEDVGVYYCSQSTHVPRTFGQGTKLEIKRTVAAPSVFIFPPSDEQLKSGTASVVCLLNNFYPREAKVQWKVDNALQSGNSQESVTEQDSKDSTYSLSSTLTLSKADYEKHKVYACEVTHQGLSSPVTKSFNRGEC
notes: also called hu1E4(V2 VL2) × Grabody B
In assay [2], B5 registered an EC50 of 0.364 nM.

B6: hu1E4(V5_VL5) x Grabody B (bispecific antibody, human IgG1, kappa)
heavy 1: not shown
heavy 2: not shown
light: DVVMTQSPLSLPVTLGQPASISCRSSQSLVHSNGNTYLHWYQQRPGQSPRLLIYKVSNRFSGVPDRFSGSGSGTDFTLKISRVEAEDVGVYFCSQSTHVPRTFGGGTKVEIKRTVAAPSVFIFPPSDEQLKSGTASVVCLLNNFYPREAKVQWKVDNALQSGNSQESVTEQDSKDSTYSLSSTLTLSKADYEKHKVYACEVTHQGLSSPVTKSFNRGEC
notes: also called hu1E4(V5 VL5) × Grabody B
In assay [1], B6 came in with a Kd of 0.059 nM, an off-rate constant (koff) of 0.00067 s⁻¹ and an association rate constant (kon) of 1.14e+07 M⁻¹ s⁻¹. The same molecule showed a half-maximal effective concentration (EC50) in assay [3] of 0.215 nM.

B7: hu1E4(V5_VL3) x Grabody B (bispecific antibody, human IgG1, kappa)
heavy 1: not shown
heavy 2: not shown
light: DVVMTQSPLSLPVTLGQPASISCRSSQSLVHSNGNTYLHWFQQRPGQSPRRLIYKVSNRFSGVPDRFSGSGSGTDFTLKISRVEAEDVGVYYCSQSTHVPRTFGGGTKVEIKRTVAAPSVFIFPPSDEQLKSGTASVVCLLNNFYPREAKVQWKVDNALQSGNSQESVTEQDSKDSTYSLSSTLTLSKADYEKHKVYACEVTHQGLSSPVTKSFNRGEC
notes: also called hu1E4(V5 VL3) × Grabody B
Turning to B7, it took 1.1 nM to reach a half-maximal effect in assay [3] (EC50).

B8: hu1E4(V2_VL2) (antibody, human IgG1, V domains shown)
VH: QVQLVQSGAEVKKPGASVKVSCKASGYTFTNYLIEWVRQAPGQGLEWIGVINPGSGGTNYNEKFKGKVTLTADKSISTAYMELSRLRSDDTAVYYCASGNYDTYWGQGTLVTVSS
VL: DVVMTQTPLSLSVTPGQPASISCRSSQSLVHSNGNTYLHWYLQKPGQSPQLLIYKVSNRFSGVPDRFSGSGSGTDFTLKISRVEAEDVGVYYCSQSTHVPRTFGQGTKLEIK
notes: Monospecific; human IgG1 and kappa constant regions
With B8, the concentration giving a half-maximal response (EC50) in assay [4] amounted to 0.57 nM.

B9: recombinant mouse 1E4 (antibody, V domains shown)
VH: QVQLQQSGAELVRPGTSVKVSCKASGYAFTNYLIEWVKQRPGQGLEWIGVINPGSGGTNYNEKFKGKATLTADKSSSTAYMQLSSLTSDDSAVYFCASGNYDTYWGQGTLVTVSA
VL: DVVMTQTPLSLPVSLGDQASISCRSSQSLVHSNGNTYLHWYLQKPGQSPKLLIYKVSNRFSGVPDRFSGSGSGTDFTLKISRVEAEDLGVYFCSQSTHVPRTFGGGTKLEIK
notes: also called rm1E4
Turning to B9, the half-maximal effective concentration (EC50) in assay [5] turned out to be 2.59 nM.

B10: mouse hybridoma 1E4 (antibody, V domains shown)
VH: QVQLQQSGAELVRPGTSVKVSCKASGYAFTNYLIEWVKQRPGQGLEWIGVINPGSGGTNYNEKFKGKATLTADKSSSTAYMQLSSLTSDDSAVYFCASGNYDTYWGQGTLVTVSA
VL: DVVMTQTPLSLPVSLGDQASISCRSSQSLVHSNGNTYLHWYLQKPGQSPKLLIYKVSNRFSGVPDRFSGSGSGTDFTLKISRVEAEDLGVYFCSQSTHVPRTFGGGTKLEIK
notes: Mouse 1E4 made by the hybridoma; also called hy1E4; mouse 1E4 antibody
For the molecule B10, in assay [6], the EC50 came to 6.56 nM and the Saturation point was found to be 3.17.

B11: hu1E4(V3_VL2) (antibody, human IgG1, V domains shown)
VH: QVQLVQSGAEVKKPGASVKVSCKASGYAFTNYLIEWVKQAPGQGLEWIGVINPGSGGTNYNEKFKGKVTLTADKSISTAYMELSRLRSDDTAVYYCASGNYDTYWGQGTLVTVSS
VL: DVVMTQTPLSLSVTPGQPASISCRSSQSLVHSNGNTYLHWYLQKPGQSPQLLIYKVSNRFSGVPDRFSGSGSGTDFTLKISRVEAEDVGVYYCSQSTHVPRTFGQGTKLEIK
notes: as for B8
B11 displayed an EC50 in assay [4] of 0.577 nM.

B12: hu1E4(V7_VL2) (antibody, human IgG1, V domains shown)
VH: QVQLVQSGAEVKKPGASVKVSCKASGYAFTNYLIEWVKQAPGQGLEWMGVINPGSGGTNYNEKFKGKATLTADKSISTAYMELSRLRSDDTAVYYCASGNYDTYWGQGTLVTVSS
VL: DVVMTQTPLSLSVTPGQPASISCRSSQSLVHSNGNTYLHWYLQKPGQSPQLLIYKVSNRFSGVPDRFSGSGSGTDFTLKISRVEAEDVGVYYCSQSTHVPRTFGQGTKLEIK
notes: as for B8
B12 returned an EC50 in assay [4] of 0.339 nM.

(Values after US20220380446A1 (ABL BIO, published 2022).)
